Reference: the DeepSol protein solubility set

Assay: soluble on expression in E. coli; label from the status in PepcDB or PDB records

**Q.** With “MGSDKIHHHHHHMNGKAVQLKEEADEPGWEVDPDDEWGVAVVETVGRQLKLRREALGMRAADFGTAVGYGEDMVYKIESGKRIPRPEFLDRADELLGAGGLLSAMKEDVKKVRYPKNVREIAKLEAQAVELGVYVGLSLHGLLQTPEHARALFEVWQPAYSPEEAERRMAARMARKAIFERSPAPALSFVQEEATLRRPVGGTMVWRQQLEHLLEVGQLRNVTLQVMPTNSEAHPGLSGRIEVLKFSDGTAVGRSDGAYNGRPISDPKQLRILELRYGTIRAQALPPRESLAFIEQLLGET” as the sequence, how does the “soluble on expression in E. coli” value read?
**A.** Its value is “not soluble”.

**Q.** Which “soluble on expression in E. coli” value does the source give for “MSQTTTNPHVAVLAFPFSTHAAPLLAVVRRLAAAAPHAVFSFFSTSQSNASIFHDSMHTMQCNIKSYDISDGVPEGYVFAGRPQEDIELFTRAAPESFRQGMVMAVAETGRPVSCLVADAFIWFAADMAAEMGVAWLPFWTAGPNSLSTHVYIDEIREKIGVSGIQGREDELLNFIPGMSKVRFRDLQEGIVFGNLNSLFSRMLHRMGQVLPKATAVFINSFEELDDSLTNDLKSKLKTYLNIGPFNLITPPPVVPNTTGCLQWLKERKPTSVVYISFGTVTTPPPAEVVALSEALEASRVPFIWSLRDKARVHLPEGFLEKTRGYGMVVPWAPQAEVLAHEAVGAFVTHCGWNSLWESVAGGVPLICRPFFGDQRLNGRMVEDVLEIGVRIEGGVFTKSGLMSCFDQILSQEKGKKLRENLRALRETADRAVGPKGSSTENFITLVDLVSKPKDV” here?
**A.** The value was “soluble”.

**Q.** With “MSNVISVENLGKKYLISHQGREPYTALRDVLTDGARAFYRRLFSPGTSQADAQAEEFWALKDVSFEVKQGDRIGIIGRNGAGKSTLLKILSRITEPTEGRVRIRGRVASLLEVGTGFHPELTGRENIFLNGAILGMNRAEIARKFDEIVAFAEIEKFLDTPVKRYSSGMYVRLAFAVAAHLEPEILIVDEVLAVGDAQFQNKCLGKMEDVSTKEGRTVLFVSHNMGAIDRLCTRAVLLERGRVRLADFTKPVIQMYLDKAKNAISAWSCSTSIPDFDGIFFESISIVNKDRKIAEVLPSNEPFSITLVVNATASLKGVQIAIRITNEQGIPILTTTNCDKAGKLQEISRGRYRYTVSLPASFLPPGYYTLIVASFVPGEKLFDGVEDKLGFCIDDMGSLATLMKDGRLGVVTPLMPWDEVRLLEHHHHHH” as the sequence, how does the “soluble on expression in E. coli” value read?
**A.** Its value is “soluble”.

**Q.** Which “soluble on expression in E. coli” value does the source give for “MSLATISKITVQKKAKQRYNVFIGKPGAERFAFSVDEAILVKYGLRKGLELDENEIKALIEADELKKTHHLALHYLSYRMRTEKEIRDYLKEKDRLDEHIEKTIVSLKAEKLIDDRAFAEAFARSKTAQTLIGPNKIRQQLLQKGVNAEAMAKALSPYQIKWQIDVLTAWLDKQERRAVNRRESNEQLKQKRTHQLLAKGFEYEAIQAALANREANEDNEWEALVYQGEKLLKSYVKKYNGRELTYKLKQALYRKGFALSKIDRFLQTEMEGEEGHHHHHH” here?
**A.** Its value is “soluble”.

**Q.** For “MSLSKTSKMKKTEISKKPSELGISNKTQDDLSKYSDTVNIALFGVDRRLKTDVSRSDSIMILTMDPAHKKLKLSSIMRDTYVNVDGHGMTKITHAYAYGGPQLAIKTINENFKLNIKDYVTVDFYALEKIIDKLNGVEINVQSDEVGYLNGYIDEVSKYEKVTPNHVTSSGKQLLDGRQAVAYSRIRYTAGGDFVRTERQRTVLMAVFNKLQAQGKSNMVSMFDEILPYTETNMGSIDIAKYGTKFISSDISNIDQERFPLDGYCSGVTVDNVWYLKTDLNVTSDQMRKYIFEDVKPSPKASLVNIPEKEGHHHHHH”, which “soluble on expression in E. coli” value is on record?
**A.** The value was “soluble”.

**Q.** For “MTDMDPSNMTGGPMNGHSAEKSSEEKKSPRSSRGVGEDLKNAGKDAMNTMENAGKNAWDKAGELGKSGINTVQSAGSAVKNGAKDLAGKVDKAL”, which “soluble on expression in E. coli” value is on record?
**A.** The value was “soluble”.

**Q.** For “MQSAAVSGRLICNGRPAVDVKLKLYENEIFFDRLMEEGRTDSNGQFRVLGSKREITTIDPKLNVYHKCNYNGLCDQKFTIHIPKDYVTSGSQPSRTFDIGTLNLANNFPGQSTDCLN”, which “soluble on expression in E. coli” value is on record?
**A.** Its value is “not soluble”.

**Q.** For “MRHLSLLLCCLLAWPARAETLVEIPTRPGVALRFLLLEPPGPPRANLILLAGGEGLLKLSAEGELGAGRGNFLVRTRQGWADMGFRVAVVDAPSDMPRGLLGDFRERAEHAADIAAVSDYLRRGAALPVWLAGTSRGTTSAAAVALNRPDAADGLLLTSSIDAGRGSLAGLPLERLAVPVLMIQHRRDECRASRPGNLGPVLDRLRADAPRELMLLDGGGSEGDPCQPWAWHGYNGIERRVLGLAGAWMLAHGRHLEHHHHHH”, which “soluble on expression in E. coli” value is on record?
**A.** The value was “not soluble”.

**Q.** Which “soluble on expression in E. coli” value does the source give for “SSSSDESEVKEAPKEEAKADKPKVSAPAQRGSDFANIGPMYPLDPFTLNLLSDSGSRYVKCTIELEQNSELLKPELDKKVPVIRDIIIRTLTAKTFEEVSTQKGKERLKDELVGKINEILTDGFIKNVYFTDFVVS” here?
**A.** Its value is “not soluble”.

**Q.** With “MMPSQITRSSHSSLPEVAPASGDATGVSEQTPQQARTVAFFSSGELAVAFGRTSAAPEQDSVRLLSALQRELDKQHPSWHTVAQLCQSLAEVGTTEQGWHQLASEDQLPALRELLDRCTHRLADMPAAHASHDSLSQACEGLRTARLHQSVARLTARPSSLARAMADLLTLTHLDPETLGAEPPVISSYTLFSHFVRTAKQRTADLNDSLQRQPDAVVSLLRSHADTLNDLEMLPGALQALTENCQDAPARNELRELAEVAGALLQLLLEHDLLPRLEEISIEPGEA” as the sequence, how does the “soluble on expression in E. coli” value read?
**A.** The value was “not soluble”.

**Q.** With “MYQTKITGNRLYHTVSKGYGDSVTLFGKTDQGETPMSLLVIALSSCVTMCVQGFYHRQFQQDTLAVSVEASYEEEVFELLVRIDDVLDDKKKADLLAYIGTYCRVKQLLKPEVTVTITLEGLSHV” as the sequence, how does the “soluble on expression in E. coli” value read?
**A.** Its value is “not soluble”.

**Q.** Which “soluble on expression in E. coli” value does the source give for “MNSPDRFRLTSCDVTPDRTGMFTAIWTCYGRLAPGWRVVFGIESGTDRLEIEAVADAGVCAPLPDGVADAWLICNGLLIAVLTPELGARLTGGSGYLRFSSSPPHDAVSSTPAHVHRAGIPPRG” here?
**A.** The value was “not soluble”.

**Q.** Which “soluble on expression in E. coli” value does the source give for “MEKDKQQLSVEVARLYYQSDYSQQEIANKLNISRPTISRLLKYAKEKGFVQISIADPFADLDNVGNLLKEKYNLLEAHVVFSPVPEYATITEYISKYAAEYMEKTVKNGDIVGVSWGMTMYEIARKIVPQHVKGVEVVQLKGGISHSSVNTYANETIALFADAFQTTPRNLPLPVIFDNAVTKELVEQDRHIHHIIEMGKQANIAIFTVGTVRDEALLFRLGYFDKDETNLLKKQSVGDICSRFFDGDGNISSEEINKRTIGIELEELKLKKRSILVAGGNRKIKAIDGALRGGYANVLIIDQHTAKELLHYQKG” here?
**A.** Its value is “not soluble”.

**Q.** With “MQGTKIRLMVGGLLLAAASNNVQAEALQPDPAWQQGKLDNGFSWQLLATPQRPSDRIELRLIVNTGSLSENTQEVGFAHLLPRLALMSSASFTPAQLQSLWQQGIDNERPLPPAITSYDFTLYSLSLPNNRPDLLKDALAWLSDTAGNLAVSEQTVNAALNTATDPIATFPQNIQEPWWRYRLKGSSLIGHDPGQPVTQPVDVEKLKQFYQQWYTPDAMTLYVVGNVDSRSIAAQISKAFSELKGKRTAPAAVATLAPLPPEPVSLMNEQAAQDTLSLMWDTPWHPIQDSMALSRYWRSDLAREALFWHIKQVLEKNNQKNLKLGFDCRVQYQRAQCAIHLNTPVENLTANMTFVARELAALRANGLSQAEFDALMTQKNDQLSKLFATYARTDTDILMSQRLRSQQSGVVDIAPEQYQKLRQAFLSGLTLAELNRELKQQLSQDTTLVLMQPKGEPEVNVKALQEIYNGIMAPQTVAEEEVAPAEAVETAPVMPTTAQ” as the sequence, how does the “soluble on expression in E. coli” value read?
**A.** Its value is “not soluble”.

**Q.** For “GPGSMVVAVYPGTFDPLTRGHEDLVRRASSIFDTLVVGVADSRAKKPFFSLEERLKIANEVLGHYPNVKVMGFTGLLKDFVRANDARVIVRGLRAVSDFEYEFQMAGMNRYLLPDVETMFMTPSDQYQFISGTIVREIAQLGGDVSKFVFPSVEKWLTEKVAAMAQGPSA”, which “soluble on expression in E. coli” value is on record?
**A.** The value was “soluble”.

**Q.** With “MSALEETQSLCKQVDDICNNGMESVEQCNKLLDQLSKIPMSIEIIQKTNIGIKVNMMRKKVTDDAVAKRAKNIIKDWKNVVDGKSKSQDDGGAPPAKKHRKESVEEAKPEKKKIEAPYKRPEPSSRPEIVAQFASASFPPKHLENDETRLKSAQLLLSALRFGDMPQGTLDPEELAVQIEEKLYSVHRDTNKSYSAAVRSRIFNLRDKKNLALRENVLTGVVRAEKFATMTSEEMASAEIREMRDKFTKEAILEHQMSVQQGTPSDMFKCGKCGKKNCTYTQLQTRSSDEPMTTFVFCLECGNRWKFC” as the sequence, how does the “soluble on expression in E. coli” value read?
**A.** The value was “soluble”.

**Q.** With “MSLTEEFVNKEDALKNYNAKEFRTPDGYTSDMILTTVKELNGKPTLHILLIKRSLTNAEGKPNMEGGKWAVPGGFVDENESAEQAAERELEEETSLTDIPLIPFGVFDKPGRDPRGWIISRAFYAIVPPEALEKRAAGDDAAEIGLFPMTEALELPLAFDHLDMLKKAFSAITEEFLLTTAIRDFLPETFSAELLYQTLEGCTKPGILPDEVEFMENIEYLPYLEKVGDLYRFNADAEAGSIYFEGHHHHHH” as the sequence, how does the “soluble on expression in E. coli” value read?
**A.** The value was “soluble”.

**Q.** With “STPETLPGHTKAKQPYREDTEWLKGQQIGLGAFSSCYQAQDVGTGTLMAVKQVTYVRNTSSEQEEVVEALREEIRMMSHLNHPNIIRMLGATCEKSNYNLFIEWMAGGSVAHLLSKYGAFKESVVINYTEQLLRGLSYLHENQIIHRDVKGANLLIDSTGQRLRIADFGAAARLASKGTGAGEFQGQLLGTIAFMAPEVLRGQQYGRSCDVWSVGCAIIEMACAKPPWNAEKHSNHLALIFKIASATTAPSIPSHLSPGLRDVALRCLELQPQDRPPSRELLKHPVFRTTW” as the sequence, how does the “soluble on expression in E. coli” value read?
**A.** Its value is “soluble”.

**Q.** With “MGSDKIHHHHHHMRRLFAIGEALIDFIPNVTHSKLKDVEQFSRQVGGAPCNVAATVSKLGGKSEMITQLGNDAFGDIIVETIEQLGVGTQYIKRTNKANTALAFVSLQDDGQRDFSFYRKPSADMLYQPENIDDIQVFQDDILHFCSVDLIESDMKYAHEKMIEKFESVDGTIVFDPNVRLPLWEDKLECQRTINAFIPKAHIVKISDEELLFITGKRNEDEAIQSLFRGRVNVVIYTQGAQGATIYTKDDYRIHHEGYQVQAIDTTGAGDAFIGAIIYCILESRYSECKDLFKEKGKDILAFSNRVAALTTTKHGAIESLPTKEDIKDYN” as the sequence, how does the “soluble on expression in E. coli” value read?
**A.** Its value is “not soluble”.

**Q.** Which “soluble on expression in E. coli” value does the source give for “MGSDKIHHHHHHMRTIEDDAALKILADVIKIPSVNDHELTVAKYLQDLLAKYDISAKIHPITGDRANLVAEIGHGQPVLAVSGHMDVVAAGDLAAWDTDPFTLVEKSGQLFGRGVTDMKAGLVALVVAMINIQQQGGPKHGTIRLLATMGEEVGEAGSAAFYQQGAMQDAAGLLIAEPSTVYGTAAEQKGSCDLKLTSKGKAVHSSTPERGYNALVPLIKLLNEANDYFETIPAGEMGPVRFNIDVLNGGDQVNSLPDLATALVNVRTIPEYDNDQVTQKLADLIAAYNQQGADIKMTAIMNESPIATTADNRLVKLVQAIGKPYAGRDVVVASSPGITDASNLAKRQPADFPFAVYGPGNMTQHQVNESLPKQMFYDFIAIYQQLFTRFLAE” here?
**A.** Its value is “not soluble”.

**Q.** Which “soluble on expression in E. coli” value does the source give for “MGSDKIHHHHHHMAIILGGMVPRPPWKYRLLAAIHAHRNAGDPGADPLVRRAVERLVAVTSRVVFGVEKPGWITSGASEGNLLALYTLREEGYRRVVAFDTSHYSIKKSALTLSMELDLLPTHGGRPRLDLLERRITPDSVVVATVGTTQEGLVDPVEEIAGVAESVGAAVHVDAAYGGYIARFLTGKARFRLEPPVMTVVVDAHKIPEAPPPAGVILASKQKLLDNLWFESPYIPTGRQFGILGTRPGGPIVAAWRRVEDLERNPGFPRLASILMRRLRKTLKALERLGYETPVTPDLPVACATHPRLGEVLERLKASGVRVYRCRSPKPCLHVTNYGRLCRARLGSSRSPRGCLRKPLGASLGNPGVTGLGL” here?
**A.** The value was “not soluble”.

**Q.** For “GPGSMRSTAPLFMAQGIWAGFRYYLGHFFYPNMYREYLSVQNAHKIERALRIQTAIKANRVDYRALLALPVTDHAHPYKMEYPWEKVINTDKSKLSGYGKWYASKIMCFYEGLQYHKYGCLQDDLINAHGWWNRAARTRAPQDKIVHGDRRVMRARVLRDKYIYEPKSRWVHPIDNVAYFGPYVMMVCDEWEEKWGFFAGQEVEY”, which “soluble on expression in E. coli” value is on record?
**A.** The value was “not soluble”.
